Source: patent publication US20250009799A1 (Amgen, published 2025)

Molecular target: putative cross-reactive peptide arising from SH2D3A, on HLA-A*02:01 of T2 cells (human)
Assay: cell-based or functional assay

B1: TCR2 (TCR, V domains shown)
V domain 1: EDQVTQSPEALRLQEGESSSLNCSYTVSGLRGLFWYRQDPGKGPEFLFTLYSAGEEKEKERLKATLTKKESFLHITAPKPEDSATYLCAVQAWGGGSQGNLIFGKGTKLSVKP
V domain 2: DSGVTQTPKHLITATGQRVTLRCSPRSGDLSVYWYQQSLDQGLQFLIQYYNGEERAKGNILERFSAQQFPDLHSELNLSSLELGDSALYFCASSAGDRGYEQYFGPGTRLTVTE
EC50 in T2/peptide TDCC assay, against the DCAF4L2 target peptide: 87 fold
